Test results as given in paper PMC2879517 (Nucleic Acids Research, 2010).

How the values were obtained:
crystal structure = biological target: the molecule itself; test: crystal structure
SEC = biological target: the molecule itself; test: SEC

B1: DdrB from D. geothermalis labeled with SeMet (natural protein)
chain: MLHIEFITDLGAKVTVDVESADKLLDVQRQYGRLGWTSGEVPVGGYQFPLENEPDFDWSLIGARKWTNPEGEEMILHRGHAYRRRELEAVDSRKMKLPAAVKYSRGAKNTDPEHVREKADGEFEYVTLAIFRGGKRQERYAVPGSNRPQAGAPARSAATRAQGARPGAVAVQDEETPF
modifications: selenomethionine (SeMet) in place of methionine
Crystal structure
  stoichiometry N: 5

B2: DdrB (DNA damage response B) from D. geothermalis, native, untagged (natural protein)
chain: B1 chain
SEC
  stoichiometry N: 5
